# Data as given in PMC3113298.
# B1: Puromycin-sensitive aminopeptidase (PSA/NPEPPS), rat (enzyme)
# chain: MWLAAAVPSLARRLLLLGSPPPPLLLLLSRSSSRRRRLHSLGLAAMPEKRPFERLPTEVSPINYSLCLKPDLLDFTFEGKLEAAAQVRQATNQIVMNCADIDIITASYAPEGDEEIHATGFNYQNEDEKVTLSFPSTLQTGTGTLKIDFVGELNDKMKGFYRSRYTTPAGEVRYAAVTQFEATDARRAFPCWDEPAIKATFDISLVVPKDRVALSNMNVIDRKPYPDDENLVEVKFARTPVMSTYLVAFVVGEYDFVETRSKDGVCVRVYTPVGKAEQGKFALEVAAKTLPFYKDYFNVPYPLPKIDLIAIADFAAGAMENWGLVTYRETALLIDPKNSCSSSRQWVALVVGHELAHQWFGNLVTMEWWTHLWLNEGFASWIEYLCVDHCFPEYDIWTQFVSADYTRAQELDALDNSHPIEVSVGHPSEVDEIFDAISYSKGASVIRMLHDYIGDKDFKKGMNMYLTKFQQKNAATEDLWESLESASGKPIAAVMNTWTKQMGFPLIYVEAEQVEDDRVLKLSQKKFCASGPYVGEDCPQWMVPITISTSEDPNQAKLKILMDKPEMSVVLKNVKPDQWVKLNLGTVGFYRTQYSSAMLESLLPGIRDLSLPPVDRLGLQNDLFSLARAGIISTVEVLKVMEAFVNEPNYTVWSDLSCNLGILSTLLSHTDFYEEIQEFVKDVFSPIGERLGWDPKPGEGHLDALLRGLVLGKLGKAGHKATLEEARRRFKEHVEGKQILSADLRSPVYLTVLKHGDGTTLDIMLKLHKQADMQEEKNRIERVLGATLSPELIQKVLTFALSEEVRPQDTVSVIGGVAGGSKHGRKAAWKFIKDNWEELYNRYQGGFLISRLIKLSVEGFAVDKMAGEVKAFFESHPAPSAERTIQQCCENILLNAAWLKRDADSIHQYLLQRKASPPSV
# Target: Cu, Zn-superoxide dismutase-1 (SOD1), human (human) (UniProt P00441)
# Sequence (P00441 whole entry): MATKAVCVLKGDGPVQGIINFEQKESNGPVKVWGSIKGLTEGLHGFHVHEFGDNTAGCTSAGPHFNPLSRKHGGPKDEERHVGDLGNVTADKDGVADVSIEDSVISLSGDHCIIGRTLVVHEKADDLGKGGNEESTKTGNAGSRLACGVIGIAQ
binder,measurement,value
B1,"proteolysis of purified human SOD1 by purified rat PSA/NPEPPS: loss of full-length SOD1 by Western blot after 6 h at 37°C, 50 mM Bicine pH 7.0, 0.2 mM DTT, molar ratio 1:6 (PSA:SOD1)",80%
